Measured values: patent publication US20210322404A1, “FGFR REGULATION FOR THE TREATMENT OF VIRAL INFECTIONS” (ETH ZURICH, priority 2016, published 2021)

Legend:
[1] = system: interferon-stimulated genes (ISGs); assay: ISG expression in human keratinocytes (HaCaT, primary foreskin) treated with FGF7, FGF10 and/or IFNα (qRT-PCR); assay type: cell-based; details: human primary foreskin keratinocytes and HaCaT, FGF7 10 ng/ml and IFNα 500 U/ml, 16 h
Protocol: FIG. 2F relates to serum-starved immortalized human keratinocytes (HaCaT cell line) that were treated for 6 h with FGF7, FGF10 (both 10 ng/ml) or vehicle (CTRL). RNA was analyzed by qRT-PCR for the expression of the indicated ISGs relative to RPLP0. Mean expression levels in CTRL cells were set to 1. Representative data from three experiments are shown. Scatter plot and mean values are shown in (A-D). Each dot represents a biological replicate.
FIGS. 3E and F pertain to confluent human primary foreskin keratinocytes and (E) or HaCaT cells (F) that were serum-starved for 24 h and treated with FGF7 (10 ng/ml) and/or IFNα (500 U/ml) for 16 h. Cells were analyzed for ISG mRNA levels by qRT-PCR relative to RPLP0. Mean expression levels in vehicle-treated (CTRL) cells were set to 1.
The human HaCaT keratinocyte cell line was cultured in DMEM (Sigma) supplemented with 10% FCS (Thermo Fisher). […]
Total RNA from isolated epidermis of mice or from total skin was purified with Trizol, followed by additional purification with the RNeasy Mini Kit, including on-column DNase treatment (Qiagen, Hilden, Germany). […] Relative gene expression was determined using the Roche LightCycler 480 SYBR Green system (Roche, Rotkreuz, Switzerland).

[2] = system: interferon-stimulated response element (ISRE); assay: ISRE luciferase reporter assay in immortalized mouse keratinocytes; assay type: cell-based; details: FGF7 10 ng/ml and/or IFNα 1000 U/ml, 12 h
Protocol: FIG. 3C pertains to immortalized mouse keratinocytes that were co-transfected with TK-Renilla and pGL4.45[luc2P/ISRE/Hygro] plasmids, starved in serum-free medium and then treated with FGF7 (10 ng/ml) and/or IFNα (1000 U/ml) for 12 h. Firefly luciferase activity was determined in cell lysates and normalized to Renilla luciferase activity (transfection control). The mean value in vehicle-treated cells (CTRL) was set to 1.
Mouse keratinocytes and HEK 293 cells were transfected with the expression vector for TK-Renilla and the expression vector pGL4.45[luc2P/ISRE/Hygro] (Promega). The latter contains five copies of an ISRE that drives expression of the luciferase reporter gene. Cells were seeded into 12-well plates, cultured for 24 h, and transfected using Lipofectamine 2000 […]. They were then starved in serum-free medium, treated with FGF7 (10 ng/ml) and/or IFNα (1000 U/ml) for 12 h, lysed and analyzed using a dual-luciferase assay system (Promega) as described by the manufacturer. Relative light units were measured in a GloMax 96 microplate luminometer with dual injectors (Promega).

B1: FGF7: recombinant human FGF7, the classical ligand of FGFR2b (protein, UniProt P21781 32-194, looked up)
Fibroblast growth factor 7: CNDMTPEQMATNVNCSSPERHTRSYDYMEGGDIRVRRLFCRTQWYLRIDKRGKVKGTQEMKNNYNIMEIRTVAVGIVAIKGVESEFYLAMNKEGKLYAKKECNEDCNFKELILENHYNTYASAKWTHNGGEMFVALNQKGIPVRGKKTKKEQKTAHFLPMAIT
increase in ISG expression in response to IFNα [1]: reduced
ISRE-driven luciferase activity [2]: counteracted
